Laboratory results taken from paper PMC10397247.
Blank lines part the entries; values can stand above or below the binder they belong to.

Columns and labels:
4H348-bH = target: T1, 4H348-bH; test: two-hybrid library CCNG1;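 also: natural log of median RNA to DNA barcode read ratio; higher means stronger binding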
T1 chain: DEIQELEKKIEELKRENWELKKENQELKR

4H3057-bH = target: T2, 4H3057-bH; test: two-hybrid library CCNG1;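 also: natural log of median RNA to DNA barcode read ratio; higher means stronger binding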
T2 chain: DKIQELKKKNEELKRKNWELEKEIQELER

4H40-bH = target: T3, 4H40-bH; test: two-hybrid library CCNG1;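 also: natural log of median RNA to DNA barcode read ratio; higher means stronger binding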
T3 chain: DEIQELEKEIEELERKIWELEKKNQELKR

4H492-bH = target: T4, 4H492-bH; test: two-hybrid library CCNG1;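 also: natural log of median RNA to DNA barcode read ratio; higher means stronger binding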
T4 chain: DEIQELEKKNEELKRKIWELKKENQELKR

4H319-bH = target: T5, 4H319-bH; test: two-hybrid library CCNG1;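 also: natural log of median RNA to DNA barcode read ratio; higher means stronger binding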
T5 chain: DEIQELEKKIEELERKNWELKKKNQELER

4H3277-bH = target: T6, 4H3277-bH; test: two-hybrid library CCNG1;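 also: natural log of median RNA to DNA barcode read ratio; higher means stronger binding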
T6 chain: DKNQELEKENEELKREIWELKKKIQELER

4H741-bH = target: T7, 4H741-bH; test: two-hybrid library CCNG1
T7 chain: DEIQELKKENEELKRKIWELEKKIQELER

4H477-bH = target: T8, 4H477-bH; test: two-hybrid library CCNG1
T8 chain: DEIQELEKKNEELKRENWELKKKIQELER

4H568-bN = target: T9, 4H568-bN; test: two-hybrid library CCNG1
T9 chain: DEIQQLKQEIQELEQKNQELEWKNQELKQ

4H797-bN = target: T10, 4H797-bN; test: two-hybrid library CCNG1
T10 chain: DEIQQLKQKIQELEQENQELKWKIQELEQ

4H953-bN = target: T11, 4H953-bN; test: two-hybrid library CCNG1
T11 chain: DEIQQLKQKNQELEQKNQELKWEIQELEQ

4H687-bN = target: T12, 4H687-bN; test: two-hybrid library CCNG1
T12 chain: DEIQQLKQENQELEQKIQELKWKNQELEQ

4H967-bN = target: T13, 4H967-bN; test: two-hybrid library CCNG1
T13 chain: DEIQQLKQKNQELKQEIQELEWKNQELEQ

4H883-bN = target: T14, 4H883-bN; test: two-hybrid library CCNG1
T14 chain: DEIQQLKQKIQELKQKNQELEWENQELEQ

4H72-bN = target: T15, 4H72-bN; test: two-hybrid library CCNG1
T15 chain: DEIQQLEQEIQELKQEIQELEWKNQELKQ

4H3855-bN = target: T16, 4H3855-bN; test: two-hybrid library CCNG1
T16 chain: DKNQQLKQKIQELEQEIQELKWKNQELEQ

4H338-bN = target: T17, 4H338-bN; test: two-hybrid library CCNG1
T17 chain: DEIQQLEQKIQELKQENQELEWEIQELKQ

4H717-bN = target: T18, 4H717-bN; test: two-hybrid library CCNG1
T18 chain: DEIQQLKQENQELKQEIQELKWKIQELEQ

4H918-bN = target: T19, 4H918-bN; test: two-hybrid library CCNG1
T19 chain: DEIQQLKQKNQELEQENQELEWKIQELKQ

4H4001-bN = target: T20, 4H4001-bN; test: two-hybrid library CCNG1
T20 chain: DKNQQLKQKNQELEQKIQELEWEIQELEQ

4H3782-bN = target: T21, 4H3782-bN; test: two-hybrid library CCNG1
T21 chain: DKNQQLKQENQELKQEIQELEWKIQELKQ

4H3427-bN = target: T22, 4H3427-bN; test: two-hybrid library CCNG1
T22 chain: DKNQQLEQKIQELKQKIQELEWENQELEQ

4H754-bN = target: T23, 4H754-bN; test: two-hybrid library CCNG1
T23 chain: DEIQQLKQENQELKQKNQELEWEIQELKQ

4H908-bN = target: T24, 4H908-bN; test: two-hybrid library CCNG1
T24 chain: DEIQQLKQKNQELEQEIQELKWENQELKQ

4H607-bN = target: T25, 4H607-bN; test: two-hybrid library CCNG1
T25 chain: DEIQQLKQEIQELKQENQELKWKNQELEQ

4H454-bN = target: T26, 4H454-bN; test: two-hybrid library CCNG1
T26 chain: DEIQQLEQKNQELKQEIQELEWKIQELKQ

P12-AA = target: T27, P12-AA; test: two-hybrid library CCmax; conditions: mean of both orientations
T27 chain: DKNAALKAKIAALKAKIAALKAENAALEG

GCN2_T = test: two-hybrid library CCmax
P9-AA = target: T28, P9-AA; test: two-hybrid library CCmax; conditions: mean of both orientations
T28 chain: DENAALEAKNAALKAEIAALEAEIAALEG

P2-AA = target: T29, P2-AA; test: two-hybrid library CCmax; conditions: mean of both orientations
T29 chain: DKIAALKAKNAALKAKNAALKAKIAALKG

AP8-AA = target: T30, AP8-AA; test: two-hybrid library CCmax; conditions: mean of both orientations
T30 chain: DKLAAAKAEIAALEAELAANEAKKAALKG

AP7-AA = target: T31, AP7-AA; test: two-hybrid library CCmax
T31 chain: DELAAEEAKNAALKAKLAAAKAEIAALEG

P7-AA = target: T32, P7-AA; test: two-hybrid library CCmax; conditions: mean of both orientations
T32 chain: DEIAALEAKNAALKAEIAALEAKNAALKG

P10-AA = target: T33, P10-AA; test: two-hybrid library CCmax; conditions: mean of both orientations
T33 chain: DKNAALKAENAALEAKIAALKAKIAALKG

P8-AA = target: T34, P8-AA; test: two-hybrid library CCmax; conditions: mean of both orientations
T34 chain: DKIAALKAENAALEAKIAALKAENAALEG

P3-AA = target: T35, P3-AA; test: two-hybrid library CCmax; conditions: mean of both orientations
T35 chain: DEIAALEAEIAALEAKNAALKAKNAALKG

P1-AA = target: T36, P1-AA; test: two-hybrid library CCmax; conditions: mean of both orientations
T36 chain: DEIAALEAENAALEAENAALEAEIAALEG

P11-AA = target: T37, P11-AA; test: two-hybrid library CCmax; conditions: mean of both orientations
T37 chain: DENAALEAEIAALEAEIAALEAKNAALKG

P4-AA = target: T38, P4-AA; test: two-hybrid library CCmax; conditions: mean of both orientations
T38 chain: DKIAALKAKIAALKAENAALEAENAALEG

interaction score (4H348-bH): -0.361 | interaction score (4H3057-bH): -0.611 | interaction score (4H40-bH): -1.77 | interaction score (4H492-bH): -1.13 | interaction score (4H319-bH): -1.81 | interaction score (4H3277-bH): -1.01 | interaction score (4H741-bH): -1.52 | interaction score (4H477-bH): -1.13
Binder: DKIQELKKKNEELKRKNWELEKEIQELER [4H3057-bH]

interaction score (4H568-bN): 0.409 | interaction score (4H797-bN): -1.45 | interaction score (4H953-bN): -1.33 | interaction score (4H687-bN): 0.0368 | interaction score (4H967-bN): 0.117 | interaction score (4H883-bN): -1.26 | interaction score (4H72-bN): -0.606 | interaction score (4H3855-bN): -0.12 | interaction score (4H338-bN): -1.01 | interaction score (4H717-bN): -1.16 | interaction score (4H918-bN): -0.295 | interaction score (4H4001-bN): -0.385 | interaction score (4H3782-bN): -0.966 | interaction score (4H3427-bN): -0.828 | interaction score (4H754-bN): -0.701 | interaction score (4H908-bN): -0.434 | interaction score (4H607-bN): -1.19 | interaction score (4H454-bN): -0.967
Binder: DEIQQLEQKIQELKQENQELEWEIQELKQ [4H338-bN]

interaction score (P12-AA): -1.62 | interaction score (GCN2_T): -2.13 | interaction score (P9-AA): -2.24 | interaction score (P2-AA): -1.94 | interaction score (AP8-AA): -2.81 | interaction score (AP7-AA): -1.7 | interaction score (P7-AA): -2.09 | interaction score (P10-AA): -0.0128 | interaction score (P8-AA): -0.66 | interaction score (P3-AA): -1.88 | interaction score (P1-AA): -1.52 | interaction score (P11-AA): -0.965 | interaction score (P4-AA): -1.42
Binder: DELAAEEAKNAALKAKLAAAKAEIAALEG [AP7-AA]
